In patent US20200399364A1 (PHANES THERAPEUTICS, published 2020) one finds EC50 data, which are given here for twelve molecules.

Residue numbers refer to the chain shown, from its start.

B1: humanized anti-CLDN18.2 mAb 2-C3-H1L1 (antibody, V domains shown)
VH: QVTLRESGPALVKPTQTLTLTCTASGFTFSSYGMSWVRQPPGKALEWVATISGGGSYTYYNPSLKDRFTISRDISANQLVLKVTNMDPADTATYFCARQSRGNAMDYWGQGTTVTVSS
VL: DIQMTQSPSTLSASVGDRVTITCKSSQSLLNSGNQKNYLTWYQQKPGKAPKLLIYWASTRESGVPSRFSGSGSGTAFTLTISSLQPDDFATYYCQNDYSYPLTFGGGTKVEIK
notes: Humanized VH and VL fused to the constant regions of human IgG1 heavy chain and kappa light chain
B2: humanized anti-CLDN18.2 mAb 6-J11-H1L1 (antibody, V domains shown)
VH: EVQLVESGGGLVQPGGSLRLSCAASGFIFSSFGMHWVRQAPGKGLEWVAYISSGRSTMYYADSVKGRFTISRDNSKNTLYLQMNSLTAEDTAVYYCARGGFYGNSLDYWGQGTLVTVSS
VL: B1 VL with T10S, Q27L, A76D, D87E, Y93S, D97A, G106Q
notes: as for B1
B3: humanized anti-CLDN18.2 mAb 2-C3-H2L1 (antibody, V domains shown)
VH: B1 VH with A24F, V37I, V48L, N61L, P62D, A76K, L79V, K82T
VL: B1 VL
notes: as for B1
B4: humanized anti-CLDN18.2 mAb 6-J11-H2L1 (antibody, V domains shown)
VH: B2 VH with T87R, A88S
VL: B1 VL with T10S, Q27L, A76D, D87E, Y93S, D97A, G106Q
notes: as for B1
B5: humanized anti-CLDN18.2 mAb 2-C3-H1L2 (antibody, V domains shown)
VH: B1 VH
VL: B1 VL with A76E
notes: as for B1
B6: humanized anti-CLDN18.2 mAb 2-C3-H2L2 (antibody, V domains shown)
VH: B1 VH with A24F, V37I, V48L, N61L, P62D, A76K, L79V, K82T
VL: B1 VL with A76E
notes: as for B1
B7: humanized anti-CLDN18.2 mAb 5-E22-H1L1 (antibody, V domains shown)
VH: QVQLVQSGVEVKKPGASVKVSCKASGYTITDNYMHWVRQAPGQGLEWIGEIYPGSGNTYFNEKFKNRATLTADKSTTTAYMELKSLQFDDTAVYFCARGFPYYAMDYWGQGTTVTVSS
VL: EIVMTQSPATLSLSPGERATLSCHARQNINVWLSWYQQKPGQAPRLLIYKASNLHTGVPARFSGSGSGTDFTLTISSLEPEDFAVYYCQQGQNYPLTFGGGTKVEIK
notes: as for B1
B8: humanized anti-CLDN18.2 mAb 5-E22-H1L3 (antibody, V domains shown)
VH: B7 VH
VL: DIVMTQSPLSLPVTPGEPASISCHARQNINVWLSWYLQKPGQSPQLLIYKASNLHTGVPDRFSGSGSGTDFTLKISRVEAEDVGVYYCQQGQNYPLTFGQGTKVEIK
notes: as for B1
B9: humanized anti-CLDN18.2 mAb 5-E22-H1L2 (antibody, V domains shown)
VH: B7 VH
VL: B7 VL with M4L, V58I
notes: as for B1
B10: humanized anti-CLDN18.2 mAb 5-E22-H3L3 (antibody, V domains shown)
VH: B7 VH with V9A, F60Y, N61A, T76I, T77S, K84S, S85R, Q87R, F88S, T113L
VL: B8 VL
notes: as for B1
B11: humanized anti-CLDN18.2 mAb 5-E22-H3L2 (antibody, V domains shown)
VH: B7 VH with V9A, F60Y, N61A, T76I, T77S, K84S, S85R, Q87R, F88S, T113L
VL: B7 VL with M4L, V58I
notes: as for B1
B12: humanized anti-CLDN18.2 mAb 5-E22-H3L1 (antibody, V domains shown)
VH: B7 VH with V9A, F60Y, N61A, T76I, T77S, K84S, S85R, Q87R, F88S, T113L
VL: B7 VL
notes: as for B1

T1 sequence (chain, as listed by the source limits assumed): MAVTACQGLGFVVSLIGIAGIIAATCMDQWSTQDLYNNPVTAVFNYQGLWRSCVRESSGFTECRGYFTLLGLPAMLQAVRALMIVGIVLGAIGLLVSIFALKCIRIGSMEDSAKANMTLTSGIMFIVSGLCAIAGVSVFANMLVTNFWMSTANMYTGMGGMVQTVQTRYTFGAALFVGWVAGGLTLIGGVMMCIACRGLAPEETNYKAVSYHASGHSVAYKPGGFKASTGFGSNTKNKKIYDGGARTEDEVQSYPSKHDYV

This test has as its target T1, human claudin 18.2 (CLDN18.2) (human).
T1 construct: also called claudin 18 variant 2; claudin-18a2.1
Nature of the test: FACS on HEK293-CLDN18.2 stable pool, FITC-based detection.
Take B1: the response was half-maximal at 9.8 nM (EC50). This counts as single-digit nanomolar. As for B2, it took 11.2 nM to reach a half-maximal effect (EC50). B3 displayed an EC50 of 8.8 nM. This EC50 and that of the molecule before are within 1.5-fold of each other. In turn, B4 registered an EC50 of 11.4 nM.

For B5, the EC50 turned out to be 9.1 nM. The EC50 values of the last two molecules are within 1.5-fold of each other.

As for B6, the midpoint of the response, the EC50, lay at 8 nM.

In turn, B7 returned an EC50 of 59 nM. With B8, the half-maximal effective concentration (EC50) came out at 61 nM. The value for B9 was 259 nM. With B10, the EC50 amounted to 14.7 nM.

Molecule B11 registered an EC50 of 19.4 nM.

Regarding B12, the half-maximal effective concentration (EC50) was determined as 12.1 nM. This EC50 lies about 1.6-fold lower than the previous one.
